This data set deals with T1, TON_0321 (CAS-Cas4) (Thermococcus onnurineus NA1, UniProt B6YTB9 1-222).
T1 sequence: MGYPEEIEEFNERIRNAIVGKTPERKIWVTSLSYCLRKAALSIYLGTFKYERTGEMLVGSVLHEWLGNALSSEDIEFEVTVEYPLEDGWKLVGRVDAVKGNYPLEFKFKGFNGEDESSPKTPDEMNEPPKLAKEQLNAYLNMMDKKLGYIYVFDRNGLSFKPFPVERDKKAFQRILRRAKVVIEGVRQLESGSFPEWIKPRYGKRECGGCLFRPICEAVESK
The experiment in a line: fluorescence anisotropy; 20 mM ZnSO4; 20 mM Tris-HCl pH 8.0, 100 mM NaCl, 0.5 mM DTT, 0.1 mg/ml BSA, 20 mM ZnSO4, 25 °C; 35 nM DNA (25 nM labeled), 0-1600 nM protein. The conditions noted are these: protein: recombinant; tags: N-terminal 6xHis (pET28a); label: 5' 6-FAM; single strand. For orientation: Fluorescence polarisation rises when a labelled molecule tumbles more slowly, as on binding a larger partner.

Experimental findings from paper PMC12538437, “Branched DNA processing by a thermostable CAS-Cas4 from Thermococcus onnurineus: Expanding biochemical landscape of nuclease activity” are described below.

As to ATTCTACCAGTGCCTTGCTAGGACATCTTTGCCCACCTGC (ssDNA) [ssDNA (Y0-1F)], the binding result was “binds”.
